# According to the nanobody polyreactivity screen of Harvey et al. (2022):
# Assay: yeast display, Sf9 membrane polyspecificity reagent, FACS + sequencing; frameworks hold sequencing errors
# Outline: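 Synthetic nanobody libraries on Saccharomyces cerevisiae BJ5465 were galactose-induced for 36–48 hours, stained 1 hour at 4 °C with 10% biotinylated, detergent-solubilized Sf9 membrane reagent and enriched on streptavidin microbeads. FACS then separated cells into low and high (top ~1%) gates by anti-HA (expression) and streptavidin (reagent binding) fluorescence. Genes were colony-PCR amplified, MiSeq 2 × 250 sequenced and CDR-length filtered. A clone's polyreactivity label is that of its gate of origin.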
row,Sequence,polyreactivity (PSR sort gate)
1,QEQLQESGGGLVQEGGSLRLSCAASGNISPPADMGWYRQAPGKERELVASIGTGGTTNYADSVKGRFTISRDNAINTVYLQMNSLKPDDTAVYYCAAVRYEYNPYDYWGQGTQVTVSS,low polyreactivity
2,QEQLQESGGGQVQAGGSLLLSCAASGNIIRYYYMGWSRQAPGKERELVAAITYGTSTNYADSVKGRFTISRDNAKNTVYLQMNSLKPEDTAVYYCAVDVNYGDPLDNWGQGTQVTVSS,high polyreactivity
3,QEQLQESGGGQVQAGGSLLLSCAASGNIIRYYYMGWYRQAPGKERELVAAITYGTSTNYADSVKGRFTISRDNAKNTVYLQMNSLKPEDTAVYYCAVDVNYGDPLDNWGQGTQVTVSS,high polyreactivity
4,QEQLQESGSGLVQAGGSLRLSCAASGNIFQDWFMGWYRQAPGKERELVAAISPGANTNYADSVKGRFTISRDNAKNSVYLQMNSLKPEDTAVYYCAAESLFDDYYGYWGQGTQVTVSS,low polyreactivity
5,QEQLQESGSGLVQAGGSLRLSCAASGNIFQDWVMGWYRQAPGKERELVAAISPGAITYYADSVKGRFTISRDNAKYTVYLQTNSLKPEDTAVYYCAAYYIVEYLHGYWGQGTRVTVSS,low polyreactivity
6,QEQLVESGGGLDQAGGSLRLICDASGFTFLGYAMGWYRQAPGKERELVAAITSGGRTNYADSVKGRFTISRDNAKNTVYLQMNSLKPEDTAVYYCAAYRWDYYYWGQGTQVTVSS,high polyreactivity
7,QEQLVESGGGLVQAGGSLRLICADSGRTLVYYGMGWYRQAPGKERELVAAISGSGGRTYYADSVKGRFTISRDNAKNTVYLQMNSLKPEDTAVYYCAALCRSYPAKYASYDYCGQGTQVTVSS,high polyreactivity
8,QEQLVESGGGLVQAGGSLRLICPASGSIFNIYAMPWSRQAPGKERELVATITGIADSTYYADSVKGRFTISRDNAMNTVYLQMNSLKPEDTAVYYCAAEKYVAEYDYWGHGTQVTVSS,low polyreactivity
9,QEQLVESGGGLVQAGGSLRLSCAASGGTFGSNTRGWYRQAPGKERELVAAITSGVSTNYADSVKGRFTISRDNAKITVYLQMNRLKPEDTAVYYCAKELWSEEYETIITYYGFDYLGQGTQVTVSS,low polyreactivity
10,QEQLVESGGGLVQAGGSLRLSCAASGSILRYYAMRWYRQPPGKEREFVAAISWSGTSTYYADSVKGRFTISRDIAKNTVYLQLNSLKPEDTSVYYCAARTYYVPYYYCGQGTQVTVSS,high polyreactivity
11,QEQLVESGGGLVQAGGSLRLSCAASGSTFYANAMGWYRQAPGQERELVAAISWDGGNTYYADSVKGRFTISRDNAKNNVYLQMNSLKPEDTAVYYCARDYYGTVYYYGYDYWGQGTQVTVSS,low polyreactivity
12,QEQLVESGGGLVQAGGSLRLSCDASGRTLSRYTMGWYRQPPGQETELVAAISTSGSTYYADSVKGRFTISRDNAKNPVYLQMNSVKPDDTGVYYCNAVGLYLHYATGYDYWGQGRQVTVSS,high polyreactivity
13,QFHLVESGGGLVQAGGSLRLSCAASGSIFYPYDMGWYRQAPGKERELVATINWSSGRTNYADSVKGRFTISRDYAKNTVYLQMNSLKPEDSAVYYCNARFYYTLYYDYWGQGTQVTVSS,high polyreactivity
14,QFHLVESGGGLVQAGGSLRLSCAATGSIFYTNAMGWYRQPAGTDRELVASIRSRDRTKYADSVKWRFSISRVNAKNTVYLQMNSLKPEDTAVYYCAADRYWYGVHASIYYYWGHGTQVTVSS,high polyreactivity
15,QFKLVESGGGLVQAGGSLRLSCAASGSTFKWNAMGWYRQAPGKERELVAAITSGGSTTYADSVKGRFTISRDNAKNTVYLQMNSLKPEDTAVYYCAAAYRRHYYGVYRFDYWGQGTQVTVSS,high polyreactivity
16,QFKLVESGGGLVQAGGSLRLSCAASGVIIQGNAMGWYRQAPGNEMELVAAISSSVSTYYADSVKGRFTISRDNAKNTVYLQMTSLKPEDTAVYYCNAGFPLSLWLGDYWGHGTQVTVSS,low polyreactivity
17,QFPLVESAGGLGQAGGTLRLTWAASGLSFGANTLGWYRHAPGKERELVAALTISGGITHYADSVKGRFTISRDNANNTVYVQIKSLQPEDTAVYYCAAGAYWRLYPYRQRNGGRMYYWGQGTQVTVSS,low polyreactivity
